Results reported in paper PMC11195132.
Like-named read-outs stand apart in the source and are kept apart here.

Key:
[1] = biological target: tSH2 domain of SYK (residues M6-N269) fused to an N-terminal 6xHis tag (UniProt P43405); assay: FRET or BRET
[2] = biological target: tSH2 domain of SYK (residues M6-N269) fused to an N-terminal 6xHis tag (UniProt P43405); assay: FRET or BRET; remark: listed apart in the source

## unlabeled FCER1G-phospho-peptide (from UniProt P30273 54-82)
[1]
  IC50: 5 nM
[2]
  IC50: 5 nM
